These results are taken from paper PMC4219626 (Nature structural & molecular biology, 2014).

Sequences and labels used below:
B2: Rrn6 (recombinant, His6-tagged) (natural protein, S. cerevisiae, UniProt P32786 1-894, looked up)
chain: MSEGQIPSSDVLGSQLGVGVQGASLYCPQENYTTKKQEKPQWLRPVDDTLAEDALDLHIVVKSLLCDTAIRYISDDKVLQESDADDDLITSDIDEDTDNQGDTSIVVNPVIPVVPKDVHFFKKVDVGNDSMFGVNCDTPVSFQDYIPSDLLRNLDDTLQESTNSSRPMQDAFFWDPTVANRLDSQYIQTASDLRNYRDGTEIIAYASGKTGSVLNIAVLTRQNTLHLNRHNNVTSIELHSPIKSIKIPGASESIGRRSNLVGIITENSFQIFRIESVHSRSCDVMVSSSEPLYFVEIDDLQVVDFAFNPWDLQQFAIIDIKGNWSIGRIPKNFNNNNKRKLQLIDNLHGTIFDPEELSSWKRIEWFSHFQKILVFDRSKMIEIDFMNNWQTEVVQAKAWSNIRDYKRIDDKNGILLTSREIIIVGASESNDPVRRISWKHDLDPDDTTLRITVQKVKKPDHILLVAFVYSMRHKRIYMHVFSHRKANLFQSLGCSTVLEIPGGTPTGIETILTLDHIDDESRREEDADENFELVVDFLVKLRNSSEVYYYALSNTQNSEPNKQETPIIVDHPEWASLFNNADEREKESIGALVSQIKLKERERISRVQNLIEHENSHDEDKYLQDLGYRLSIATNELLESWQKTKDESILSGSLSHSKLKNLLENSDSFASIPEFSSLLDQFFQYYQDQDVTFIGFEKLLHLFLHEDVPGLDIFYNKLLQCWVLVSPQAELLTKEIVKDIIWSLARLEKPSLFEPIQNEISRSLSGPYQDIISSWDMDDINEEDESNEFNFDSQFSAPFNGRPPFNLNSQSQIPTIKSSQSSGLARRKRILKTQSQKATPLSQSTQNLSVLPDSMTPAFTLMQPPSSQISFVNDSQPRNSQKAKKKKKRIRGFG
B3: Rrn7 (recombinant, His6-tagged) (natural protein, S. cerevisiae, UniProt P40992 1-514, looked up)
chain: MSTFIRGPICGTDNCPSRLWRIIDGRRTCQYGHVMEGDVEFNDDEDDLNGLGAGVITRRLNLTTNATGSFQSSQLTNSQLLQQQQRQSHKKFKKLIGHEAKLLFLKSFQFILKRQIRWLITEMRFPKEFEHVAKIIWLKILKTINDQPQEELKLQLHMTSTISILYLASTHLSLPVYTCDYIKWICTAKMPYFQASEILPKSWRIQLPNYYVSILEGSISPFNGQLYNKIALTCGMIHFKEFFNSEISCQGLLLKLVMQCALPPEFYFYTKQVIEFEETDIRNLTLWERTDERHTGRVSNHAELRVLSYFMLTINWMLSFDRDRQYPLKWILSLTESLTQRTTTSESIGRNIVKVVYPDKPTSSDYFQWSEEETLEFLKWMEKQFLPTQTKSLHNENGSMEMTIDQKIARRKLYKIFPLDREANHDGEFNDSTHQLTFIEDLQERYAKQTPFFESNKIRDSLNYQEANPPARKEAIGRLLTHIASQLLVDFAISKEQLKDCISRIKNACLHRMN
B4: Rrn11 (recombinant) (natural protein, S. cerevisiae, UniProt Q04712 1-507, looked up)
chain: MFEVPITLTNRKFAQRRKLKYQYINYISRRFDRISKKSTTTDSLPTPENSAAENNDEEEGQNSEAGTYRRSVLQQKKRRRERHWRSVVGEIYSTTESETDSQEEETEEGGEHDTGIDKEDSDEERKFWKKYEKPEKSFEIWRTVSSQNKQPINKQKMTYHNFKKIEKIPLRKMEIPLLHCTKENKLYFQSISRGLEPLKTSTSEVRNYRTRHIVTLTDLLHLNVSRHNWSLAYKIFATLIRIPGVQIKSLWGIGVEILDNLSNSSSGLDFLQWMCQIYSSKSRFVQNINYRSIVPPFQTGSRTHTAKFAITYLWSSLINCQKSMEPSSNIIDKPFDTENDLLQELIDKISEWVLTPPFMEDAEVWFIYASCHLLKADTLSRQFVNDNKNNDLIGLDRDIKINQVIKHIHYVRTFLKICLDKGGFAVPSRLIENQLKSFESRLYGEAQDIQERDVANVYDSIDNSSVENSFGDVYETNAEFLDTQLMDLSPEDNGLDEMHYSDEDSSE

Test [1] deals with B3. Nature of the test: cross-linking.
Test [2] concerns the target B2. Nature of the test: cross-linking.
The target of test [3] is B4. Nature of the test: cross-linking.
In test [4] the target is B3. As to the kind of experiment: cross-linking. The source holds these as a separate data set.
The target in test [5] is B2. As to the kind of experiment: co-purification.
For test [6], the target named is B2. Nature of the test: cross-linking. This is another data set of the same source.

B1: TATA binding protein (TBP) (natural protein, S. cerevisiae, UniProt P13393 1-240, looked up)
chain: MADEERLKEFKEANKIVFDPNTRQVWENQNRDGTKPATTFQSEEDIKRAAPESEKDTSATSGIVPTLQNIVATVTLGCRLDLKTVALHARNAEYNPKRFAAVIMRIREPKTTALIFASGKMVVTGAKSEDDSKLASRKYARIIQKIGFAAKFTDFKIQNIVGSCDVKFPIRLEGLAFSHGTFSSYEPELFPGLIYRMVKPKIVLLIFVSGKIVLTGAKQREEIYQAFEAIYPVLSEFRKM
As for B1, the binding result in test [1], in test [2] and in test [3] was “binds” in each case.
The term stoichiometry N denotes the number of molecules, sites or subunits per partner or assembly. For the molecule B2, the “stoichiometry N” value in test [4] turned out to be 1.
Consider B3, for which the binding result in test [5] was “binds”.
Regarding B4, the “stoichiometry N” value in test [4] and in test [6] was 1 each time.
